Experimental data: IntAct's records for PubMed 24947010

B1: Parkinson disease protein 7 (Homo sapiens), Q99497 (parent)
chain: MASKRALVILAKGAEEMETVIPVDVMRRAGIKVTVAGLAGKDPVQCSRDVVICPDASLEDAKKEGPYDVVVLPGGNLGAQNLSESAAVKEILKEQENRKGLIAAICAGPTALLAHEIGFGSKVTTHPLAKDKMMNGGHYTYSENRVEKDGLILTSRGPGTSFEFALAIVEALNGKEVAAQVKAPLVLKD

Variants of: B1
Conditions: with rack1_human RACK1, P63244

| effect of a mutation on the interaction | Variant |
| --- | --- |
| disrupting interaction strength | C106S |
| disrupting interaction strength | C46S |
| decreasing interaction strength | C53S |
